Results from the supplement of paper PMC10126150.
± gives the standard deviation of the averaged measurements.

System: ATP
Test: switch fluorescence ratio, 500 uM ATP over buffer (Cy3 cluster intensity, sum of 5 cycles each) (fold (ratio)); higher = stronger signal-on switching upon ATP binding; sequences stand for … in TCGTCGGCAGCGTCAGATGTGTATAAGAGACAGTTTTTTTTTTTTTTTTTTTTTTTTT…TC
Conditions: aptamer strand: ATP DNA aptamer (quencher-CACCTGGGGGAGTATTGCGGAGGAAGG + anchor), 100 nM annealed; ATP concentration: 500 uM
Procedure, shortened: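 Switching-strand clusters labelled with Cy3 on a modified Illumina MiSeq flow-cell were annealed to 100 nM quencher-labelled ATP aptamer, imaged in selection buffer, and re-imaged after 15 min with 500 uM ATP at 22 °C. This was done over five cycles with NaOH stripping and re-annealing in between. The fluorescence ratio is summed target-cycle over summed buffer-cycle Cy3 intensity per cluster, averaged per switch-domain sequence, excluding clusters outside 100-1000 RFU.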
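Also: ATP exposure 15 min at 22 °C before imaging.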

Sequence	switch fluorescence ratio
GGTTGGGGAC	0.971 ± 0.022
TACTGGTCCT	1.03 ± 0.038
GCGTAACAGT	0.964 ± 0.045
TTGTGTGGGA	1.02 ± 0.026
GTTTTTGGAG	0.98219 ± 0.00097
TAGACCATGT	1.02 ± 0.034
CAATTAGTGA	1.01 ± 0.028
GAAAGTAATT	0.996 ± 0.051
TTTTTTCATT	1.02 ± 0.052
CAGTCTGCTC	1.05 ± 0.03
TCATTTAGGT	0.967 ± 0.013
GGAGCGGACG	1 ± 0.016
TGGGGGGGGC	1.01 ± 0.034
GCTTCTGGCA	0.999 ± 0.023
TTGGCTTTAT	0.982 ± 0.04
AGAGAATGG	0.951 ± 0.023
TATAAAAGTC	0.992 ± 0.023
GTTTTGACAC	1.02 ± 0.013
TACTTTGCGG	1.01 ± 0.063
GACGGGGTGT	1.059 ± 0.0039
GGATTACGGT	1.01 ± 0.03
TGAAGCTGCC	1.28 ± 0.042
GCAGGCAACT	0.995 ± 0.018
ACTTGGTGGG	0.986 ± 0.049
GCGTGAGCGA	0.985 ± 0.042

Sequence	switch fluorescence ratio
CAGAGGCCCG	1.02 ± 0.032
CTTGGCCGCG	0.987 ± 0.011
ATGCACGAAG	1 ± 0.057
GTTGTTGCTC	0.987 ± 0.04
ATTTTGTCAT	0.972 ± 0.019
ACAGTAGGAA	1.08 ± 0.035
TAAAAATTGG	0.997 ± 0.014
GATGGGCTCG	0.988 ± 0.025
CGACGAAACT	1.15 ± 0.021
TGGAAGGGAG	0.9738 ± 0.0083
GTTGGTAGGA	1.01 ± 0.033
AAGCTTGAAG	1.01 ± 0.013
GGGCTAGGTA	1.01 ± 0.0074
ATGCAATGTC	1.38 ± 0.22
ATATTTGTGG	0.9843 ± 0.0088
ACAACGGTCT	1.042 ± 0.0035
GAAATGTAGG	0.995 ± 0.034
TGGGTAGAAA	0.975 ± 0.032
TTGTTGATGC	1.14 ± 0.021
TGGGGTAGGG	0.998 ± 0.026
ATTATTACGT	0.99 ± 0.038
ATGTGGGTAT	1.028 ± 0.0068
TAGACACAGC	1.02 ± 0.12
TTGGTCAAAT	1.04 ± 0.022
GGAGTGAGCG	0.995 ± 0.036

Sequence	switch fluorescence ratio
TTTGGGCGGG	1.01 ± 0.033
CCGGCGTGGC	1.36 ± 0.082
GAACACGGTA	1.204 ± 0.0023
CGGGTAATTC	1.128 ± 0.0039
CGGCGGGCTT	1.02 ± 0.018
CTAGTCACGT	1.003 ± 0.0031
CCATGGCGGT	1.05 ± 0.033
ATATGGGAAA	0.978 ± 0.025
GCTGTGGGCA	0.977 ± 0.02
CGGTCAACAC	1.66 ± 0.15
GGATCCATTC	0.972 ± 0.019
GTTTTTGAGG	0.977 ± 0.028
AAAGGTGGCA	1 ± 0.017
ATGGGAGGGT	0.997 ± 0.061
GAGTCAGC	1.08 ± 0.14
TTCGGGAGTG	0.985 ± 0.02
CCGCTTTTTT	1.28 ± 0.23
AGTTGGCTGA	0.9967 ± 0.0063
GGTGTGTCGT	1.02 ± 0.017
AAGGTCTGGT	0.985 ± 0.038
TACTGTGACA	1.14 ± 0.012
AGGATTGTGA	1.02 ± 0.028
ACCAGGGGGG	1.07 ± 0.058
TTTATTACCC	1.02 ± 0.025
GAGGCTAGGG	1.05 ± 0.031

Sequence	switch fluorescence ratio
TTTGTTATGG	1.02 ± 0.063
CACAATTTTT	0.991 ± 0.025
GACTAAGTTT	1.018 ± 0.0076
GCGCCAAGAG	1.29 ± 0.11
GTTTTTTTAG	1 ± 0.033
AGGTGTATTC	0.9962 ± 0.0058
TGGGGAAAAC	1.02 ± 0.051
TCATGCTTGT	0.985 ± 0.035
TAATTGTTAT	0.986 ± 0.024
GCTCGCACAG	1.321 ± 0.0081
TTAGATCTGC	1.02 ± 0.083
CATTTTTTTT	0.995 ± 0.02
TAGGGGGCCA	1.014 ± 0.004
TCCTTTAAGA	0.998 ± 0.036
AGGTGCCTG	0.971 ± 0.035
CAATGCGGTA	0.976 ± 0.046
TCAATAGAGT	1.039 ± 0.0024
GATTTGCGGG	0.9833 ± 0.0069
GCTTGTTGTA	0.998 ± 0.015
ATTAAGGCGC	0.998 ± 0.029
AGCTGGCTGT	0.9735 ± 0.0037
TTTTAGAGAT	1.02 ± 0.038
TTAGCAGCGC	1.01 ± 0.055
AGGTAGGTTT	0.99 ± 0.017
TCCCATGTTG	1.05 ± 0.054
